Series [1] has as its target 30SΔS1 ribosomal subunit (rS1-depleted);ribosomal protein rS1 (Escherichia coli JE28;Vibrio vulnificus CMCP6) (UniProt A0A3Q0L6Y6). The series is described as follows: MST. Conditions: MST: 25 mM K-phosphate pH 7.2, 150 mM KCl, 5 mM MgCl2, 5 mM DTT, 0.4 mg/mL BSA, 0.05% Tween20, RNasin, 25 °C, EMSA: 25 mM K-phosphate pH 7.2, 75 mM KCl. In general terms: In EMSA bound probe runs differently from free probe, usually more slowly.

The target in series [2] is rS1-depleted 30S ribosomes from E. coli (E. coli (endogenous in strain JE28)) (UniProt P0A7V0). The experiment in a line: MST; labeled 30SΔS1 (30 nM) with a 1:1 dilution series of rS1 (3 µM); 30 min at 25 °C; 25 mM potassium phosphate pH 7.2, 150 mM KCl, 5 mM MgCl2, 5 mM DTT, 0.4 mg/mL BSA, 0.05% Tween20, RNasin.
In another series the target is ribosomal protein rS1 (Vibrio vulnificus CMCP6, UniProt A0A3Q0L6Y6 1-556). The experiment in a line: NMR; holo (adenine); 1:1 rS1 opens P4 and P5 by 50%; MST: 25 mM K-phosphate pH 7.2, 150 mM KCl, 5 mM MgCl2, 5 mM DTT, 0.4 mg/mL BSA, 0.05% Tween20, RNasin, 25 °C; EMSA: 25 mM K-phosphate pH 7.2, 75 mM KCl, 5 mM DTT, on ice. As to conditions: protein: recombinant; tags: N-terminal His-thioredoxin tag, cleaved by TEV; label: 13C,15N (NMR); riboswitch fold with helices P1-P5.

In general, Kd refers to a measure of binding affinity in units of concentration. The low end stands for higher affinity, the high end for lower affinity. “GCUUCAUAUAAUCCUAAUGAUAUGGUUUGGGAGUUUCUACCAAGAGCCUUAAACUCUUGAUUAUGAAGUCUGUCGCUUUAUCCGAAAUUUUAUAAAGAGAAGACUCAUGAAUUACUUUGACCUGCCG [ASW14-140, Cy5-labeled add riboswitch]” gave a Kd in series [1] of 60 nM. This counts as double-digit nanomolar. Molecule “ribosomal protein rS1 from Vibrio vulnificus (from UniProt A0A3Q0L6Y6 1-556) (natural protein)” gave a Kd in series [2] of 170 nM. This counts as sub-micromolar.

B1: ASW14-140, add riboswitch (structured_RNA)
RNA: GCUUCAUAUAAUCCUAAUGAUAUGGUUUGGGAGUUUCUACCAAGAGCCUUAAACUCUUGAUUAUGAAGUCUGUCGCUUUAUCCGAAAUUUUAUAAAGAGAAGACUCAUGAAUUACUUUGACCUGCCG
For B1, the binding result with ribosomal protein rS1 is “binds”.

These data come from publication PMC8342710, “Switching at the ribosome: riboswitches need rProteins as modulators to regulate translation”.
